Assay [1] addresses T1, recombinant human Tau monomer, 2N4R isoform (amino acids 2-441) (human, UniProt P10636-8 2-441).
T1 construct: range 2-441; N-terminal His-tag removed with TEV protease; also called monomeric Tau
The assay is described as follows: SPR, captured IgG, Tau monomer analyte, 1:1 model; fit-quality column: Yes. The procedure: (§1) Briefly, IgGs in 1 mL culuture were captured using tip columns that were custom packed with 20 μL MabSelect SuRe resin (Glygen Corp & GE Healthcare). After washing with 1×PBS pH 7.4, IgGs were eluted into 160 μL of 50 mM phosphoric acid pH 3 and neutralized with 12 μL of 20×PBS pH 11. MabSelect SuRe tip columns were stripped in 0.1 M NaOH and regenerated with 1×PBS pH 7.4 for consecutive use of up to 15 times. Purified antibodies in 96-well format were normalized to 0.1 mg/ml using a Hamilton Star liquid handling robot. The “pre-stress” samples were kept at approximately 4° C. and the “post-stress” samples were incubated at 40° C. for two weeks in a PCR machine. Functional stability of the variants was compared by running surface plasmon resonance kinetics experiments with the “pre-stress” and “post-stress” antibody preps. The antibodies were assessed using a human antibody capture CM5 Series S chip generated using the GE Biacore human IgG capture kit and a Biacore T200 instrument. Antibodies diluted to 2 μg/ml were immobilized using a 15 second injection time and 10 μl/min flow rate. Binding to Tau monomer at 0 nM, 26.5 nM and 265 nM, at 25° C., using a flow rate of 40 μl/min, was monitored for a 180 second association phase followed by a 300 second dissociation phase. Samples were run in 10 mM HEPES pH7.4, 150 mM NaCl, 0.05% Tween 20 (HBSP) using a multi-cycle kinetics format. Data was analyzed using BIAevaluation software, fitting a 1:1 binding model. The resulting affinity (KD) values are shown in FIG. 8A-D. A Stability Index was also calculated, using the rationale that affinity-compromised antibodies (due for example to deamidation of key residues) are expected to contribute equally to the IgG capture level (“Ligand Level”) but to contribute less to the measured Tau binding, and that this would be reflected in the experimentally derived value for Rmax. To account for variations in the amount of each antibody captured, Rmax was normalized for the antibody capture level (as measured by “Ligand Level”, Response Units immobilized during antibody capture). Thus Normalized Rmax is calculated as the experimental Rmax (units=RU) divided by the “Ligand Level” (Evaluation output representing the RU captured during the hIgG capture step, units=RU), and Stability Index is calculated here as Normalized Rmax (post-stress) divided by Normalized Rmax (pre-stress).

The target of assay [2] is T1, recombinant human Tau monomer, 2N4R …. Description: SPR; Normalized Rmax post-stress (2 weeks 40 C) / pre-stress. The procedure: as §1
(In general: SPR reads the build-up and loss of mass on a sensor chip optically.)

From patent publication US20190367592A1 (AC IMMUNE, published 2019) come the findings set out here.

Changes are numbered by the printed parent chain.

T1 sequence (P10636 other isoform, or with tags, fused parts or gaps limits assumed): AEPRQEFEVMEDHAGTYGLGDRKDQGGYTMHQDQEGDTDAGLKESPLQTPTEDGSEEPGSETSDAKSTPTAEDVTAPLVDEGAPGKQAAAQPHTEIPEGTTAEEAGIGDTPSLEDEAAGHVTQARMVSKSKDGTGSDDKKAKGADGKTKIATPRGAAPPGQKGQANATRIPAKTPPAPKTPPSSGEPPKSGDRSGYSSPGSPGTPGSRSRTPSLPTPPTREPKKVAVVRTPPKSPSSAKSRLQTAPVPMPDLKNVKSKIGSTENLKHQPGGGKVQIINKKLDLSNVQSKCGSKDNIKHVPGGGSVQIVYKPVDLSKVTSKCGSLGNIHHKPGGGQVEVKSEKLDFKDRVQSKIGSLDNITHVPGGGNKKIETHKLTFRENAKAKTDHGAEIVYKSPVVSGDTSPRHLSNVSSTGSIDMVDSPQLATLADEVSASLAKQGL

B1: hu37D3.v28 (antibody, V domains shown)
VH: EVQLVESGGGLVQPGGSLRLSCAASGLIFRSYGMSWVRQAPGKGLEWVATINSGGTYTYYPDSVKGRFTISRDNSKNTLYLQMNSLRAEDTAVYYCANSYSGAMDYWGQGTLVTVSS
VL: DDVLTQTPLSLPVTPGQPASISCRSSQSIVHSNGNTYFEWYLQKPGQSPQLLIYKVSNRFSGVPDRFSGSGSGTDFTLKISRVEAEDVGVYYCFQGSLVPWTFGQGTKVEIK
On to B1, for which the Kd in assay [1] was 0.9 nM. In assay [2], the “Stability Index” value was found to be 78%.

B2: hu37D3.v28.A4 (antibody, V domains shown)
VH: B1 VH
VL: B1 VL with F38L
notes: also called hu37D3-H9.v28.A4
In the case of B2, the dissociation constant Kd in assay [1] stood at 1.2 nM. Moreover, in assay [2], the “Stability Index” value was 96%.

B3: hu37D3.v28.54 (antibody, V domains shown)
VH: B1 VH
VL: B1 VL with D1E, N33L
On to B3, for which, in assay [1], the dissociation constant (Kd) was 24.8 nM. The “Stability Index” value in assay [2] is 82%.

B4: hu37D3-H9.v30.1 (antibody, V domains shown)
VH: B1 VH
VL: B1 VL with N33G
With B4, the Kd in assay [1] was 23.5 nM. The “Stability Index” value in assay [2] came to 87%.

B5: hu37D3-H9.v5.9 (antibody, V domains shown)
VH: B1 VH
VL: B1 VL with D1E, N35E
B5: the Kd in assay [1] was determined as 5.3 nM. Also, the “Stability Index” value in assay [2] was 95%.

B6: hu37D3-H9.v31.9 (antibody, V domains shown)
VH: B1 VH
VL: B1 VL with G34A, T36I
As to B6, in assay [1], the dissociation constant (Kd) worked out at 7.5 nM. In assay [2], the “Stability Index” value worked out at 81%.

B7: hu37D3-H9.v5.8 (antibody, V domains shown)
VH: B1 VH
VL: B1 VL with D1E, N35Q
As to B7, in assay [1], the Kd came out at 2.2 nM. In assay [2], the “Stability Index” value was found to be 90%.

B8: hu37D3-H9.v31.3 (antibody, V domains shown)
VH: B1 VH
VL: B1 VL with G34A, N35I
For B8, the equilibrium dissociation constant (Kd) in assay [1] was found to be 9.8 nM. In assay [2], the “Stability Index” value is 93%.

B9: hu37D3.v28.52 (antibody, V domains shown)
VH: B1 VH
VL: B1 VL with D1E, N33K
Regarding B9, in assay [1], the Kd stood at 17.6 nM. Also, the “Stability Index” value in assay [2] worked out at 80%.

B10: hu37D3-H9.v30.2 (antibody, V domains shown)
VH: B1 VH
VL: B1 VL with N33T
As to B10, the equilibrium dissociation constant (Kd) in assay [1] is 4.2 nM. For the same molecule, in assay [2], the “Stability Index” value was found to be 96%.

B11: hu37D3-H9.v31.5 (antibody, V domains shown)
VH: B1 VH
VL: B1 VL with G34A, N35F
Turning to B11, the Kd in assay [1] came out at 15.2 nM. Further, in assay [2], the “Stability Index” value was 85%.

B12: hu37D3-H9.v5.11 (antibody, V domains shown)
VH: B1 VH
VL: B1 VL with D1E, N35S
For the molecule B12, the Kd in assay [1] was found to be 97.7 nM. The “Stability Index” value in assay [2] stood at 71%.

B13: hu37D3-H9.v5.2 (antibody, V domains shown)
VH: B1 VH
VL: B1 VL with D1E, N33S
Regarding B13, in assay [1], the Kd worked out at 10.9 nM. For the same molecule, the “Stability Index” value in assay [2] was 97%.

B14: hu37D3-H9.v5.10 (antibody, V domains shown)
VH: B1 VH
VL: B1 VL with D1E, N35A
Turning to B14, in assay [1], the Kd came to 4.7 nM. For the same molecule, in assay [2], the “Stability Index” value is 78%.

B15: hu37D3-H9.v30.4 (antibody, V domains shown)
VH: B1 VH
VL: B1 VL with N33L
B15: the Kd in assay [1] amounted to 22 nM. Besides, the “Stability Index” value in assay [2] was found to be 87%.

B16: hu37D3.v28.A2 (antibody, V domains shown)
VH: B1 VH
VL: B1 VL with L98H
B16: the Kd in assay [1] came to 32.6 nM. Moreover, the “Stability Index” value in assay [2] was 72%.

B17: hu37D3-H9.v31.6 (antibody, V domains shown)
VH: B1 VH
VL: B1 VL with G34A, N35Y
On to B17, for which the Kd in assay [1] turned out to be 15.5 nM. The “Stability Index” value in assay [2] was found to be 90%.

B18: hu37D3-H9.v5.7 (antibody, V domains shown)
VH: B1 VH
VL: B1 VL with D1E, N35D
Consider B18, for which the Kd in assay [1] amounted to 13 nM. In addition, in assay [2], the “Stability Index” value was 67%.

B19: hu37D3.v28.57 (antibody, V domains shown)
VH: B1 VH
VL: B1 VL with G34F
With B19, the Kd in assay [1] stood at 4.4 nM. The “Stability Index” value in assay [2] was 88%.

B20: hu37D3-H9.v31.7 (antibody, V domains shown)
VH: B1 VH
VL: B1 VL with G34A, N35R
Turning to B20, the dissociation constant (Kd) in assay [1] was 6.9 nM. In addition, the “Stability Index” value in assay [2] was 83%.

B21: hu37D3.v28.A6 (antibody, V domains shown)
VH: B1 VH
VL: B1 VL with F38L, L98H
Take B21: the dissociation constant (Kd) in assay [1] turned out to be 38.3 nM. In addition, the “Stability Index” value in assay [2] was found to be 82%.

B22: hu37D3.v28.56 (antibody, V domains shown)
VH: B1 VH
VL: B1 VL with G34Y
For the molecule B22, the Kd in assay [1] is 5.4 nM. Besides, the “Stability Index” value in assay [2] is 76%.

B23: hu37D3-H9.v31.8 (antibody, V domains shown)
VH: B1 VH
VL: B1 VL with G34A, T36V
With B23, the dissociation constant Kd in assay [1] was 10.9 nM. Besides, the “Stability Index” value in assay [2] came out at 78%.

B24: hu37D3-H9.v31.2 (antibody, V domains shown)
VH: B1 VH
VL: B1 VL with G34A, N35V
For the molecule B24, the Kd in assay [1] came to 10.6 nM. Besides, the “Stability Index” value in assay [2] came out at 90%.

B25: hu37D3-H9.v30.3 (antibody, V domains shown)
VH: B1 VH
VL: B1 VL with N33V
Take B25: the dissociation constant Kd in assay [1] turned out to be 38.1 nM. Moreover, the “Stability Index” value in assay [2] was found to be 83%.

B26: hu37D3.v28.55 (antibody, V domains shown)
VH: B1 VH
VL: B1 VL with G34Q
Take B26: the dissociation constant (Kd) in assay [1] worked out at 2.6 nM. The “Stability Index” value in assay [2] came out at 82%.

B27: hu37D3.v28.53 (antibody, V domains shown)
VH: B1 VH
VL: B1 VL with D1E, N33R
For the molecule B27, the Kd in assay [1] is 22.9 nM. In assay [2], the “Stability Index” value amounted to 76%.

In general, Kd refers to the concentration at which binding is half-saturated.
